Measured values reported in the nanobody polyreactivity screen of Harvey et al. (2022).

Test: yeast display, Sf9 membrane polyspecificity reagent, FACS + sequencing; frameworks hold sequencing errors
In short: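 A synthetic nanobody library was expressed on Saccharomyces cerevisiae BJ5465 by galactose induction for 36–48 hours. The library was stained for 1 hour at 4 °C with 10% biotinylated, detergent-solubilized Sf9 membrane reagent and enriched with streptavidin microbeads before FACS. Low and high (top ~1%) gates were set on anti-HA fluorescence for expression and streptavidin fluorescence for reagent binding, and each polyreactivity label reflects the gate of origin.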

| Sequence | polyreactivity (PSR sort gate) |
| --- | --- |
| QVQLVESGGGLVQAGGSLRLSCAASGSIFGRYAMGWYRQAPGNERELVAGICSRGTSTYYADSVKGRFTISRDNAKNTVYLQMNSLKPEDTAVYYCNAYPYYIVGSRYDYWGQGTQVTVSS | high polyreactivity |
| QVHLVESGGGLVQAGGSLRLSFAASGRTFLRYDMGCYIQAPGKERELVAADSVKGRFTISRDNAKNTVYLQMNSLKAEDPAVYYCAADSTEYTGDASYIGYDYWGQGTHVTVSS | high polyreactivity |
| QVQLVESGGGLVQAGGSHRLSCSGSGFSLTLNAMGWYRQAPGKERELVAAISGNGGRTYYADSVKGRFTISRDNAKNTVYLQMNSLKPEDTAVYYCAARYTRTPSDCSTRKFGYGYWGQRTQVTVSS | high polyreactivity |
| QVQLVESGGGLVQAGGSLRLSCSASGRTFRSNAMGWYRQAPGKEREFVAAIRSRGGSTYYADSVKGRFTISRDNAKNSVYLQMNSLKPEDTAVYYCADKHGSTSHDSWGQGTQVSVSS | high polyreactivity |
| QVQLVESGGGLVQAGGSLRLSCAASGGIFVIYAMGWYRQAPGKERELVAAITWGGGTTYYADSVKGRFTISRDNAKNTVYLQMNSLNPEDTAVYYCNADGFVYGWYYYYEGYDYWGQGTQVTVSS | low polyreactivity |
| QVQLVESGGGLVQAGGSLRLSCAASGRIFTTYAMGWYRQAPGKERELVAAISRSGGSTYYADSVKGRFTISRDNAKNSVYLQMNSLKPEDTAVYYCAAVPTSNSFRSSFYYWGQGTQVTVSS | high polyreactivity |
| QVQLVESGGGLVQAGGSLRLICAASGSTFPYYDMGWYRQAPGKETELVAAISWSGDSTYYADSVKGRFTISRDNAKNTVYLQMNSLKPEDTAVYYCAAYSDYWSYLSTDDYWGQGTQVTVSS | low polyreactivity |
| QVQLVESGGGLVQAGGSLRLSCDASGSIIRYYAMGWYRQAPGKERELVAAINSLGGTTYYADSVKGRFTISRDNAKNTVYLQMNSLKPEDTAVYYCAAGYPPLHTSVQQTAHYGLDYCGQGTQVTVSS | high polyreactivity |
| QVQLVESGGGLVQAGGSLRLIFAASGSIFNRYTMGWYRQAPGKERELVADISKSGTRTYYADSVKGRFTISRDNAKNTVYLQMNSLKPEDTAVYYCAKSSVAVYQTRYDYWGQGTQVTVSS | high polyreactivity |
| QVQLVESGGGLVQAGGSLRLSCAASGFSLRNNAMGWYRPAPGKERELVAGITSGGRTNYADSVKGRFTISRDNAKNTVYLQMNSLKPEHTAVYYCAKRVWPRDQYGKRNPRMDYWGQGTLVTVSS | high polyreactivity |
| QVQLAESGGGLVQAGGSLRLSCAASGRIFARNAMGWYRQAPGKERELVAAISWSGGRTYYADSVKGRFTISRDNAKNTVYLQMNSLKPEDTAVYYCAADHYPWWAWEFDYWGQGTQVTVSS | low polyreactivity |
| QVQLVESGGGLVQAGGSLRISSAASGFIFSLNAMGWYRQAPGKERELVASITRSGTRTYYADSVKGRFTISRDNAKKTDFLQRNSLKPEATAVDYCAARTKRSYEYQAFYYWGQGTQVTVSS | high polyreactivity |
| QEQLVESGGGLDQAGGSLRLSCAASGSTFSGYALAWYRQAPGKERELVAAISWRGVRTYYADSVKGRFSISRDNAKNRVYLQMNSLKPEDNAVYYCAAVGYITKEFYWGQGTKVTVSS | high polyreactivity |
| QVQLVESGGGLVQAGGRLRLSCDASGSIFYYYTMGWYRQAPGKEREFVAAITWRGASTYYADSVKGRFTISRDNAKNTVDLKMNSLKPEDTAVDYCNARWRVPRYRYDYWGQGTQVTVSS | high polyreactivity |
| QDQLGDSGGGLLQAGGSLRLSCAASGQIYFDNMGWYRQAPGKEREMVAAISSSGASTSYADSVKGRFTISRDNAKNTVYLQIYSLNPEDTAVYYCAADSYPAYLGFVGFDYWGQGTQVTVSS | low polyreactivity |
| QVQLVESGGGLVQAGGSLRLSCSASGSIFNYYAMGWYRQPPGKERELVAAISYRTGSTYYADSVKGRFTISRDNSKNTVYLQMNSLKPEDTSVYYCAADTRYGYGYWGQGTQVTVSS | high polyreactivity |
| QVQLVESGGGLVQAGGSLRLSCAASGFTFGSNTMGWYRQAPGKERELVAAITTSGDSTYYADSVKGRFTISRDNAKNTVYLQMNSLKPEDTAVYYCAARTYYQGGYYYWGPGTQVTVSS | high polyreactivity |
| QVQLVESGGGLVQAGGSLRLSCAASGRTFYTNAMGWYRQAAGKERELVAVISRGGTTYYADSVKGRFTISRDNAKNTVYLQMNSLKPEDTAVYYCAKQRPSGDSSSQMGSWGQGTQVTVSS | low polyreactivity |
| QVQLVESGGGLVQAGGSLRLSCAASGRTFYSYVMGWYRQAPGKEREFVADISQSGGRTFYSDSVKGRFTISRDNAKNTVYLQMNSLKPEDTAVYYCAAAKRGSYARGYYWGQGTQVTVSS | low polyreactivity |
| QVQLVESGGGLVQAGGSLRLSCAASGRIFYYNAMGWYRPAPGKERELVATITGSGGSTYYADSVKGRFTISRDNAKNTVYLQMNSLKPEDTAVYYCNATRWYYDFYKLDYWGQGTQVTVSS | low polyreactivity |
| QVQLVESGGGLVQAGGRLRLSCAASGGTFYYYAMGWYRQAPGKERELVAAIRRRGGGTYSADSVKGRFTISRDNAKNTVYLQMNSLKPEDTAVYYCARDKLRSWWGDYNTYYPDDSWGQGTQVTVSS | high polyreactivity |
| QVQLVESGGGLDQAGGSLRLSCAASGSIFTVNAMGWYRQAPGKERELVAAIDGSSGSTNYADSVKGRFTISRDNAKNTVYLQMNSLKPEDTAVYFCAADWSYEYGYWGQGTQVTVSS | low polyreactivity |

| Sequence | polyreactivity (PSR sort gate) |
| --- | --- |
| QLQLVESGGGLVQAGGSLRLSCAASGIIFDGYSRGWYRQAPGKEREFVAAITSGGGSTSYADSVKGRFTISRDYAKNTVYLQMNSLKPEDTAVYYCAARSNRFYVRQRYGYWGQGTQVTVSS | high polyreactivity |
| QVQLVESGGGLVQAGGSLRLSCAASGLTIKPNAMGWYRQAPGKERELVAAIDWSGGSTYCADSVKGRFTISRDNAKNTVDLQMNSLKPEDTAVYYCAADPPDRLFLYDYWGQGTQVTVSS | low polyreactivity |
| QVQLVESGGVLVQAGGSLRLSCAASGFIFETYVMGWYRQAPGKERELVDAISGGGSTYYADSVKGRFTISRDNAKKTVYLQMNSLKPEDTAVYYCAAKSGSFVHGGYQTPVYGSDYWGQGTQVTVSS | high polyreactivity |
| QVQLVESGGGLVQAGGSLRLSCAASGRILHEYAMGWYRQAPGKERELVAAITFSGTSTYYADSVKGRFTISRDNAKNTVYLQMNSLKPEDTAVYYCAADTYGGSRDYWGQGTQVTVSS | low polyreactivity |
| QVQLVESGGGLVQAGGSLRLSCAASGSTFYPYAMGWYRQAPGKERELVAAISYSGGSTYYADSVKGRFTISRDNAKNTVYLQMNSLKPEDSAVYYCAAYYRRQFTSYGNYYYWGQGTQVTLSS | high polyreactivity |
| QVQLVESGGRLVQAGGSLRLSCAASGITFNVYAMGWYRQEPGKERELVAAITSSGATTYYADSVKGRFTISRDNAKNTVYLQMNSLKPEDTSVYYCAAKLSTRRYKYDYWGQGTQVTVSS | high polyreactivity |
| QVQLVESGGGLVQAGGSLRLSCAASGFIFYKYAMGWYRQAPGKERELVAAITASGGSTYYADSVKGRFTISRDNEKITVYLQMNSLKPEDTEVYFCAASRLFGFDYWGQGTQVTVSS | high polyreactivity |
| QVQLVESGGGLVQEGGSLRLSCAASGSTFERNAMGWYRQAPGKERELVAAISAIGDSTYYADSVKGRFTISRDNAKNTVYLQMKSLNPEDTAVYYCAARYTRYHIGRGYYYWGQGTQVTVSS | high polyreactivity |
| QVQLVESGVGLVQAGGSLRLSCAASGSILFYYAMGWYRQAPGKERELVAAITYSGARSYYADSVKGRFTISRDNAKNTVYLQMNSLKPEDTAVYYWAADQVYGIGYEYWGQGTQVTVSS | low polyreactivity |
| QVQLVESGGGLVKAGGSLRLSCAASGRTLRSYDMGWYRQAPGKEREVVAAITRTGGDTYYADSVKGRFTISRDNAKNTVYLQMNRLKPDDTAVYYCAAQRYRGYDYWGQGTQVTVSS | high polyreactivity |
| QVQLVESGGGLVQAGGSLRLSCAASGRTFVRNAMGWYRQAPGKERELVAAITRSGGSTYYADSVKGRFTISRDNAKNTVYLQMNSLKPEDTAVYYCSARPPYRVGIVPLGRREYYWGQGTQVTVSS | high polyreactivity |
| QVQLVESGGGLVQAGGSLRLSCAASGITFDIYNMGWYRQAPGKERELVAAISYSGGSTYYADSVKGRFTISRDNAKNTVYLQMYSLKPEDTAVYYCAAYEGTYFTEVDYWGQGTQVTVSS | low polyreactivity |
| QVQLVDSGGGLVQAGGSLRLSCDASGSTFRGTVMGWYRQAPGKERELVAGIYSGGSTYYADSVKGRFTISRDNAKNTVYLQMNSLKPEDTAVYYCAAYRRQHIIYNDWGQGTQVTVSS | high polyreactivity |
| QVQLVESGGGLVQAGGSLRLSCAASGRTFFYYTMGWYRQAPGKERELVAAITGSGTRTYYADSVKGRFTISRDNAKNTVYYQMNSLKPEDTAVYYCAAGYSDFSGQQVYYWGQGTQVTVSS | high polyreactivity |
| QVQLVESGGGLVQAGGSLRLSCAASGRTFRYYAMGWYRQAPGKERELVAAINRGGSTYYADSVKGRFTISRDNAKNTVYLQMNSLKPEDTAVYYCNVDKYRIVGFHSPYDYWGQGTQVTVSS | high polyreactivity |
| QVQLVESGGGLVQAGGSLRLSCAASGNIIDANAMGWYRQAPWKERELVAAITSSGGSTYYADSVKGRFTISRDNAKNTVYLQMNSLNPEDTAVYYCAKSHAIYYWWDESWGQGTQVTVSS | low polyreactivity |
| QVQLVESGGGLVQEGGSLRLSCAASGSIFDVYAMGWYRQAPGKERELVAAISSSGSTYYADSVKGRFTISRDNAKNTVYLQMNSLKPEDTAVYYCAADQADDDDYYYWGQVTQVTVSS | low polyreactivity |
| QVQLVESGGGLVQAGGSLRLSCAASGSIMVRYAMGWYRQAPGKERELVAAITSGGSTYADSVKGRFTISRDNAKNTVYLQMNSLKPEDTAVYYCARDYFNREAFDYWGQGTQVTVSS | low polyreactivity |
| QVQIVESGGALVQAGGSLRLSCAASGSTHGNAMGWYRQAPGKERELVAAISLNTGSTYYADSVKGRFTISRDNAKNTVYLQMNSLKPEDTAVYYCAAGGTARDDSWGQGTQVTVSS | low polyreactivity |
| QDQLVESGGGLVQAGGSLRLSCAASGFIFDLYAMGWYRQAPGKERELVAVISYDGGSTYYADSVKGRFTISRDNAKNTVYLQMNSLKPVDTAVYYCNTYAGLVSPSDLYDYWGQGTQVTVSS | low polyreactivity |
| QVQLVESGGGLVQAGGSLRLSCAASGITFQRNAMGWYRQAPGKERELVAVITSIGGRTYYADSVKGRFTISRDNAKNTVYLQMNSLKPEDTAVYYCNAASATRSADWYDYDYWGQGTQVTVSS | high polyreactivity |
